Molecular target: T1, recombinant human BOLA1, fluorescently labelled (human, UniProt Q9Y3E2 1-137, NT-647 dye (Monolith NT Protein Labeling Kit RED))
T1 construct: BOLA1, human mitochondrial BolA protein
T1 sequence (looked up): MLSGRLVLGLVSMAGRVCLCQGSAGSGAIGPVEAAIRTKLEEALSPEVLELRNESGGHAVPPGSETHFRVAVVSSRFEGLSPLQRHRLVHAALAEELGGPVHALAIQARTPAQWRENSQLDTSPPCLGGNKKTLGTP
Assay: MST; 200 nM NT-647 labelled protein titrated with unlabelled protein from 200 µM to 6.1 nM; 50 mM KPi pH 7.4, 150 mM NaCl, 5% glycerol, 0.05 mg/mL BSA, 0.05% Tween20; 21°C; anaerobic
Conditions: both partners purified

B1: human holo-GLRX5 dimer containing the bridging [2Fe-2S] cluster (natural protein, UniProt Q86SX6 32-157, looked up)
chain: AGSGAGGGGSAEQLDALVKKDKVVVFLKGTPEQPQCGFSNAVVQILRLHGVRDYAAYNVLDDPELRQGIKDYSNWPTIPQVYLNGEFVGGCDILLQMHQNGDLVEELKKLGIHSALLDEKKDQDSK
modifications: bridging [2Fe-2S] cluster between two GLRX5 monomers
notes: GLRX5, human mitochondrial monothiol glutaredoxin, chemically reconstituted; also called chemically reconstituted GLRX5; source: chemically reconstituted with Fe-S cluster in an anaerobic chamber
fold affinity against BOLA3: 50 fold
